Earlier results in publication PMC6557524.

Biological target: CCR2 (UniProt P41597)
Sequence of UniProt P41597 (P41597 whole entry): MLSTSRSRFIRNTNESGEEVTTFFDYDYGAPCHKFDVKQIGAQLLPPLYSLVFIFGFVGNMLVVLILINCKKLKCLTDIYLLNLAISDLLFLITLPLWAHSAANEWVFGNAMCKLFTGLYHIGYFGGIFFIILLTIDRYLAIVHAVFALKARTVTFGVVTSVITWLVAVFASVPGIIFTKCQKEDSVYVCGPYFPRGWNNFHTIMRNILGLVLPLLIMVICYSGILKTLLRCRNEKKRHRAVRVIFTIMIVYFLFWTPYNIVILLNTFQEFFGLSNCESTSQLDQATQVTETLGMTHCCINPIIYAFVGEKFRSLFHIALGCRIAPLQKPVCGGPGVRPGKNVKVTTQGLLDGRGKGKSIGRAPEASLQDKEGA

## CCL2 (from UniProt P13500)
  Kd: 2.1 nM
